The numbers were not newly measured in article PMC3727077, which cites them from elsewhere.

Like-named read-outs stand apart in the source and are kept apart here.

What is called Kd is the concentration at which binding is half-saturated.

Data set [1] deals with α2MFAST (Homo sapiens) (UniProt P01023).
Data set [2] addresses NRP1 (Homo sapiens) (UniProt O14786).
Data set [3] addresses VEGFR2 (Homo sapiens) (UniProt P35968).
In data set [4] the target is VEGFR1 (Homo sapiens) (UniProt P17948).
Data set [5] deals with α2M (Homo sapiens) (UniProt P01023).
Data set [6] has as its target NRP1 (Homo sapiens) (UniProt O14786). The source holds these as a separate data set.

UniProt P35968, sequence (P35968 20-1356): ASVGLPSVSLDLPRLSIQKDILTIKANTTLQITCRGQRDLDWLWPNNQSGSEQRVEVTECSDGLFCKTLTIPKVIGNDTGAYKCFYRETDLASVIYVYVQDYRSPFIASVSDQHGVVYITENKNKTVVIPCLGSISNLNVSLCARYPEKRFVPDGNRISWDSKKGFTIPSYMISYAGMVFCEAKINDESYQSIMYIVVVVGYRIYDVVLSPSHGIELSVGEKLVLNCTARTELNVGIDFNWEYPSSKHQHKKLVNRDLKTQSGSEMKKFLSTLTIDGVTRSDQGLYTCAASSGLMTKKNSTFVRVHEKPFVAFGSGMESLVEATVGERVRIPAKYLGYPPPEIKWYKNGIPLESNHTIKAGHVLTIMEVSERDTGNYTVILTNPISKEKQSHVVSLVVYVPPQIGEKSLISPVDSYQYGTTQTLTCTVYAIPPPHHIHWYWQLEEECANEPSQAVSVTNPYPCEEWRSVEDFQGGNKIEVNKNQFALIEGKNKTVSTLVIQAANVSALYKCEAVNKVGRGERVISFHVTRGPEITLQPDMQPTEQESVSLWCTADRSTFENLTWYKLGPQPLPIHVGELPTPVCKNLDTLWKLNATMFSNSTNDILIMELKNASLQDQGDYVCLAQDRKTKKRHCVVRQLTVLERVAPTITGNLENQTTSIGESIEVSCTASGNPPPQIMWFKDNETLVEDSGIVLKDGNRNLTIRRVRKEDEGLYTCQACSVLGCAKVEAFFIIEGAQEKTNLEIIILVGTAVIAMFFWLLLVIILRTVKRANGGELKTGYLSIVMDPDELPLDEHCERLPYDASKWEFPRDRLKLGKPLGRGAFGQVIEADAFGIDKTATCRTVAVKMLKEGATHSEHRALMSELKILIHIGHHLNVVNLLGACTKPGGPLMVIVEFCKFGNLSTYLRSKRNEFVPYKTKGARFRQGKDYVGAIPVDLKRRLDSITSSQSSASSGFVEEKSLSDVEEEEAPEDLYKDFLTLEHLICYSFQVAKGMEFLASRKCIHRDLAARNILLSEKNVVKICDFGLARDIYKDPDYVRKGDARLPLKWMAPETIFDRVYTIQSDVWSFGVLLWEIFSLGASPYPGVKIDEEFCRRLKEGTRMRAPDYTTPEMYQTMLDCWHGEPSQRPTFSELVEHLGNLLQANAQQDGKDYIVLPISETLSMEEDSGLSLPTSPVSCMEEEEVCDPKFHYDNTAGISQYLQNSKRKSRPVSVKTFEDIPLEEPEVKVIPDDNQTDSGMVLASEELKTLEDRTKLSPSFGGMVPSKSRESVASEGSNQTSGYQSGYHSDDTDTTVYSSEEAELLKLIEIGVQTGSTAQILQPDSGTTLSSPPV

VEGF (from UniProt P15692): the dissociation constant (Kd) was 420 nM in data set [1]; 0.312 nM in data set [2]; 0.1 nM in data set [3]; 0.033 nM in data set [4]; 4000 nM in data set [5].
Consider sVEGFR1 soluble (from UniProt P17948), for which the Kd in data set [6] was 1.8 nM.
